Results taken from US8623627B2, “Labelling of fusion proteins with synthetic probes” (New England Biolabs, Inc, priority 2006, dated 2014).
Positions count from the first letter of the chain named.

Columns and labels:
6×His-^NAGT = target: T1, 6×His-^NAGT (Homo sapiens, UniProt P16455, A127T/A154D/C150Q/C62A/G131K/G132T/G153L/K125A/K32I/L33F/M134L/N157G/Q115S/Q116H/R128A/R135S/S151G/S152D/S159E); experiment: In vitro specific dual labelling assay, labelling of 6×His-^NAGT; type: biochemical; conditions: equimolar GST-ACT1 and 6×His-^NAGT 0.5 μM, single substrate 5 μM, 24° C., 60 minutes
T1 construct: ^NAGT is a 182 amino acid mutant of ^wtAGT in which the last 25 amino acids are deleted
T1 sequence (P16455 1-182 K32I/L33F/C62A/Q115S/Q116H/K125A/A127T/R128A/G131K/G132T/M134L/R135S/C150Q/S151G/S152D/G153L/A154D/N157G/S159E): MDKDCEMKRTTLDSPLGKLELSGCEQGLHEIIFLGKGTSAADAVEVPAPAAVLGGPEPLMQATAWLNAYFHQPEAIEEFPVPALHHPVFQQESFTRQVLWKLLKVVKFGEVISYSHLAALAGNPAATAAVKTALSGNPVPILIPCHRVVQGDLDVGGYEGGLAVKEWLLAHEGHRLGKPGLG
Protocol: (§1) Fluorescent dye-labelled protein mixtures were analyzed by SDS-PAGE, see Example 12. GST-ACT1: fusion protein of ACT 1 (SEQ ID NO:1) with glutathione S-transferase (GST). 6×His-AGT: fusion protein of ^NAGT (SEQ ID NO:2) with the short peptide 6×His. […] BCFL: compound 5 (Example 4). BCCy5: compound 10 (Example 8).
(§2) Labelling reactions were quenched by addition of 4× SDS buffer (8% SDS, 10% β-mercaptoethanol, 240 mM Tris pH 6.8, 40% glycerol) and incubation for 5 min at 95° C. Fluorescent dye-labelled protein mixtures were analyzed by SDS-PAGE as described above.

GST-ACT1 = target: T2, GST-ACT1 (Homo sapiens, UniProt P16455, A127T/A154D/C150Q/C62A/G131S/G132T/G153L/K125A/K32I/L33F/M134L/N157G/Q115S/Q116H/R128A/R135D/S151G/S152D/S159M/V148E/Y114R); experiment: In vitro specific dual labelling assay, labelling of GST-ACT1; type: biochemical; conditions: equimolar GST-ACT1 and 6×His-^NAGT 0.5 μM, single substrate 5 μM, 24° C., 60 minutes
T2 construct: made in house
T2 sequence (P16455 1-182 K32I/L33F/C62A/Y114R/Q115S/Q116H/K125A/A127T/R128A/G131S/G132T/M134L/R135D/V148E/C150Q/S151G/S152D/G153L/A154D/N157G/S159M): T1 sequence (P16455 1-182 K32I/L33F/C62A/Q115S/Q116H/K125A/A127T/R128A/G131K/G132T/M134L/R135S/C150Q/S151G/S152D/G153L/A154D/N157G/S159E) with Y114R, K131S, S135D, V148E, E159M
Protocol: as §1, §2

[1] = Reaction rates of labelling of GST fusion proteins with BCFL; type: biochemical; conditions: for kBCFL: second-order rate constant, GST-fusion protein with BCFL, 50 mM HEPES pH 7.2, 24° C.
Protocol: (§3) The fluorescent readout of an SDS gel run after different time of incubation is shown on top with the corresponding graph at the bottom. The percentage of ACT-Fluorescein conjugate (% ACT-FL) formed from ACT is shown vs. time of incubation (min). […] GST-ACT10: fusion protein of ACT 10 (SEQ ID NO:12) with glutathione S-transferase (GST).
(§4) The genes of mutants isolated after phage selection according to Example 9 were amplified by PCR using primers 6 (N, AGT, SEQ ID NO:8) and 7 (C, AGT, SEQ ID NO:9) that contain, respectively, BamH1 and EcoR1 restriction sites for subsequent subcloning into pGEX-2T vector (Amersham Biosciences, Otelfingen, Switzerland). Expression and purification of proteins as GST-ACT fusion proteins were performed as previously described for AGT fusion proteins (A. Juillerat, T. Gronemeyer, A. Keppler, S. Grendreizig, H. Pick, H. Vogel, K. Johnsson, Chem. Biol. 10:313, 2003). […] Samples were taken at different times and the labelling reaction was quenched by addition of 4× SDS buffer (8% SDS, 10% β-mercaptoethanol, 240 mM Tris pH 6.8, 40% glycerol) and incubation at 95° C. for 5 min. The reaction advancement was determined by detection of the fluorescent dye-labelled proteins in SDS-PAGE gel and quantification of fluorescence intensity using a Pharox FX™ molecular imager. The data were fitted to a pseudo-first order reaction model. Second-order rate constants were then obtained by dividing the pseudo first-order constant by the concentration of fluorogenic substrate.

[2] = Urea-induced unfolding, read out as ACT-Fluorescein formed with BCFL; type: physicochemical; conditions: for half unfolding urea concentration C1/2: protein 0.5 μM, urea 0 to 8 M for 30 minutes, then 20 μM BCFL for 2 hours
Protocol: Shown is the percentage of ACT-Fluorescein (% ACT-FL) formed. The value obtained at 0 M urea [(NH2)2CO] is set to 100%. Protein (0.5 μM) was incubated in kinetic buffer (50 mM HEPES, pH 7.2, 1 mM DTT) supplemented with urea (0 to 8 M) for 30 minutes. Then the solution was adjusted to 20 μM BCFL and incubated for 2 hours. Samples were then boiled 5 min at 95° C. in SDS buffer. Fluorescent dye-labelled protein mixtures were analyzed by SDS-PAGE. The data set was fitted with Y=100/(1+10^((log C1/2−X)*HillSlope)) to get the half unfolding urea concentration C1/2. The following values of C1/2 were found for the different mutants: • ACT1 2.8±0.1 M; ACT9 4.1±0.1 M; ACT10 5.1±0.2 M.

[3] = Reaction rates of labelling of GST fusion proteins with BGFL; type: biochemical; conditions: for kBGFL: second-order rate constant, GST-fusion protein with BGFL, 50 mM HEPES pH 7.2, 24° C.
Protocol: as §3, §4

[4] = versus ^wtAGT; cited from earlier work

Nc1ccnc(OCc2ccc(CNC(=O)c3ccc4c(c3)C3(OC4=O)c4ccc(O)cc4Oc4cc(O)ccc43)cc2)n1 [BCFL, N-[4-(4-Aminopyrimidin-2-yloxymethyl)-benzyl]-fluorescein-6-carboxamide]
labelling of 6×His-^NAGT (6×His-^NAGT): 76%
labelling of GST-ACT1 (GST-ACT1): complete labelling

N-[4-(4-Aminopyrimidin-2-yloxymethyl)-benzyl]-Cy5-carboxamide [BCCy5]
labelling of 6×His-^NAGT (6×His-^NAGT): 6%
labelling of GST-ACT1 (GST-ACT1): complete labelling

O^6-[4-(Cy5)-Aminomethyl]-benzyl guanine [BGCy5]
labelling of 6×His-^NAGT (6×His-^NAGT): complete labelling

B1: ACT 10: alkylcytosine transferase 10, SEQ ID NO:12, from error prone PCR of ACT9 (protein)
chain: T1 sequence (P16455 1-182 K32I/L33F/C62A/Q115S/Q116H/K125A/A127T/R128A/G131K/G132T/M134L/R135S/C150Q/S151G/S152D/G153L/A154D/N157G/S159E) with M60I, Y114E, A121V, K131N, S135D, L153S, G157P, E159L
modifications: alyklcytosine transferase 10 derived from O6- alkylguanine-DNA alkyltransferase
reactivity towards benzylcytosine [1]: high reactivity
kBC ([1]; FIG. 2, 0.5 μM GST-ACT10 with BCFL): 1130 ± 150 M⁻¹ s⁻¹
kBCFL [1]: 1130 M⁻¹ s⁻¹
stability against denaturation by urea ([2]; 4 M urea): high stability
half unfolding urea concentration C1/2 [2]: 5.1 ± 0.2 M
kBG ([3]; FIG. 2, 0.5 μM GST-ACT10 with BGFL): ~10 M⁻¹ s⁻¹
kBGFL [3]: 10 M⁻¹ s⁻¹

B2: ACT 1: alkylcytosine transferase 1, SEQ ID NO:1, derived from ^NAGT by directed evolution (protein)
chain: T1 sequence (P16455 1-182 K32I/L33F/C62A/Q115S/Q116H/K125A/A127T/R128A/G131K/G132T/M134L/R135S/C150Q/S151G/S152D/G153L/A154D/N157G/S159E) with Y114R, K131S, S135D, V148E, E159M
modifications: alkylcytosine transferase 1 derived from O6- alkylguanine-DNA alkyltransferase
kBCFL [1]: 730 M⁻¹ s⁻¹
half unfolding urea concentration C1/2 [2]: 2.8 ± 0.1 M
kBGFL [3]: <10 M⁻¹ s⁻¹

B3: ^NAGT: 182 amino acid mutant of ^wtAGT, SEQ ID NO:2, starting point for directed evolution (protein)
chain: T1 sequence (P16455 1-182 K32I/L33F/C62A/Q115S/Q116H/K125A/A127T/R128A/G131K/G132T/M134L/R135S/C150Q/S151G/S152D/G153L/A154D/N157G/S159E)
modifications: O6-alkylguanine-DNA alkyltransferase (AGT) mutant
kBCFL [1]: 26 M⁻¹ s⁻¹
kBGFL [3]: 28000 M⁻¹ s⁻¹
higher activity towards benzylguanine derivatives than wild-type ^wtAGT [4]: approximately 50 fold
